Source: patent US20220242974A1 (QURE BIOTECHNOLOGY SHANGHAI, published 2022)

Biological target: PD-L1-his fusion protein (Homo sapiens (Human), UniProt Q9NZQ7 19-238)
Assay: ELISA, PD-L1-his coated, culture supernatant of the clone

PD-L1-his fusion protein, sequence (Q9NZQ7 other isoform, or with tags, fused parts or gaps limits assumed): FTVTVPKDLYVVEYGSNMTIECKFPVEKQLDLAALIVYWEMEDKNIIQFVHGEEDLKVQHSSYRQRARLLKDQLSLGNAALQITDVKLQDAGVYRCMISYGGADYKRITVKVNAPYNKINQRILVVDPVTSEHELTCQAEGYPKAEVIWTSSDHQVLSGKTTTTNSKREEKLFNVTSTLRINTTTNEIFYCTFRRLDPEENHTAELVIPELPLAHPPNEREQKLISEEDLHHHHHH

Row | Binder | binding result
1 | QP1163 nanobody (VHH, as m59) VHH: QVQLVESGGGSVQSGGSLRLSCAASGFTYGTYAMSWFRQAPGKEREGVACIDIYGRTSYTDPVKGRFTISQDNAKNTLYLQMNSLKPEDTAMYYCAARDFGYCTASWVHAGFSRYWGQGTQVTVSS | binds
2 | QP1165 nanobody (VHH, as m59) VHH: QVQLVESGGGSVQSGGSLRLSCAASGFTYGAYAMSWFRQAPGKEREGVACIDIYGRTSYTDPVKGRFTISQDNAKNTLYLQMNSLKPEDTAMYYCAARDFGYCTASWVHEGFSRYWGQGTQVTVSS | binds
3 | QP1147 nanobody (VHH, as m59) VHH: QVQLVESGGGSVQAGGSLTLSCAVSGNTYSTKYMGWFRQAPGKEREGVAAILAGGRNTYYADSVKGRFTISQDNAKNTVYLQMNSLKPEDTAMYYCAADTRAAFWYIGPLNSDQYNIWGQGTQVTVSS | binds
4 | QP1158 nanobody (VHH, as m59) VHH: QVQLVESGGGSVQAGGSLTLSCAVSGNTYSTKYMGWFRQAPGKEREGVAAILAGGRNTYYADSVKGRFTISQDNAKNTVYLRMNSLKPEDTAMYYCAADTRAALWYIGPLNSDQYNTWGQGTQVTVSS | binds
5 | QP1139 nanobody (VHH, as m59) VHH: QVQLVESGGGSVQAGGSLTLSCAVSGNTYGTNAMGWFRQAPGKEREGVAAILGGGRNTYYADSVKGRFTISQDNAKNTVYLQMNSLKPEDTAMYYCAADTRAAFWNIGPLNSDQYNIWGQGTQVTVSS | binds
6 | QP1161 nanobody (VHH, as m59) VHH: QVQLVESGGGSVQAGGSLTLSCAVSGNTYSTNYMAWFRQAPGKEREGVAAIRVGGRNTDYADSVKGRFTISQDNAKNTVYLQMNSLKPEDTAMYYCAADTRAAFWYIGPLNSDQYNIWGQGTQVTVSS | binds
7 | QP1155 nanobody (VHH, as m59) VHH: QVQLVESGGGSVQAGGSLTLSCEVSGSTYSTNYMGWFRQAPGKEREGVAAILAGGRNTDYADSVKGRFTISQDNAKNTVYLQMNSLKPEDTAMYYCAADTRAAFWYIGPLNSDQYNIWGQGTQVTVSS | binds
8 | QP1150 nanobody (VHH, as m59) VHH: QVQLVESGGGSVQAGGSLTLSCAVSGNTYSTKYMGWFRQAPGKEREGVAAILAGGRNTHYADSVKGRFAISQDNAKNTVYLQMNSLKPEDTAMYYCAADTRAAFWNIGPLNSDQYNIWGQGTQVTVSS | binds
9 | QP1148 nanobody (VHH, as m59) VHH: QVQLVESGGGSVQAGGSLTLSCAVSGNTYSTNYMGWFRQAPGKEREGVAAILAGGRNTAYADSVKGRFTISQDNAKNTVYLQMNSLKPEDTAMYYCAADTRAAFWNIGPLNSDQYNIWGQGTQVTVSS | binds
10 | QP1160 nanobody (VHH, as m59) VHH: QVQLVESGGGSVQAGGSLTLSCAISGNTYSTKYMGWFRQAPGKEREGVAAILAGGRNTYYADSVKGRFTISQDNAKNTVYLQMNSLKPEDTAMYYCAADARAAFWYIGPLNSDQYNIWGQGTQVTVSS | binds
11 | QP1142 nanobody (VHH, as m59) VHH: QVQLVESGGGSVQAGGSLTLSCAVSGNTYSTNIMGWFRQAPGKEREGVAAILAGGRNTYYADSVKGRFTISQDNAKNTVYLQMNSLKPEDTAMYYCAADTRAAFWNIGPLNSDQYNIWGQGTQVTVSS | binds
12 | QP1140 nanobody (VHH, as m59) VHH: QVQLVESGGGSVQAGGSLTLSCVVSGNTYSTKYMGWFRQAPGKEREGVAAILAGGRNTYYADSVKGRFTISQDNAKNTVYLQMNSLKPEDTAMYYCAADTRAAFWNIGPLNSDQYNIWGQGTQVTVSS | binds
13 | QP1159 nanobody (VHH, as m59) VHH: QVQLVESGGGSVQAGGSLTLSCAVSGNTYSTKYMGWFRQAPGKEREGVAAILAGGRNTSYADSVKGRFTISQDNAKNTVYLQMNSLKPEDTAMYYCAADTRAAFWYIGPLNSDQYNIWGQGTQVTVSS | binds
14 | QP1151 nanobody (VHH, as m59) VHH: QVQLVESGGGSVQAGGSLTLSCAVSGNTYSTNYMGWFRQAPGKEREGVAAILTGGRNTYYADSVKGRFTISQDNAKNTVYLQMNSLKPEDTAMYYCAADTRAAFWNIGPLNSDQYNIWGQGTQVTVSS | binds
15 | QP1156 nanobody (VHH, as m59) VHH: QVQLVESGGGSVQAGGSLTLSCAVSGNTYSTKYMGWFRQAPGKEREGVAAILAGGRNTYYADSVKGRFTISQDSAKNTVYLQMNSLKPEDTAMYYCAADTRAAFWYIGPLNSDQYNSWGQGTQVTVSS | binds
16 | QP1146 nanobody (VHH, as m59) VHH: QVQLVESGGGSVQAGGSLTLSCAVSGNTYSTNYMGWFRQAPGKEREGVAAILVGGRNTYYADSVKGRFTISQDNAKNLVYLQMNSLKPEDTAMYYCAADTRAAFWNIGPLNSDQYNIWGQGTQVTVSS | binds
17 | QP1145 nanobody (VHH, as m59) VHH: QVQLVESGGGSVQAGGSLTLSCAVSGNTYSTKYMAWFRQAPGKEREGVAAILAGGRNTSYADSVKGRFTISQDNAKNTVYLQTNSLKPEDTAMYYCAADTRAAFWYIGPLNSHQYNIWGQGTQVTVSS | binds
18 | QP1153 nanobody (VHH, as m59) VHH: QVQLVESGGGSVQAGGSLTLSCAVSGNTYSTKYMGWFRQAPGKEREGVAAILAGGRNTDYADSVKGRFTISQDNAKNTVYLQMNSLKPEDTAMYYCAADTRAAFWSIGPLNSDQYNIWGQGTQVTVSS | binds
19 | QP1130 nanobody (VHH, as m59) VHH: QVQLVESGGGLVQPGGSLRLSCAASGFTFSTSTMMWVRRAPGKGLEWVSGIHNDGGPIAYADSVKGRFTISRDNAKNTLYLQMTSLKSEDTALYYCARGWYFSGDYVPMTQGTQVTVSS | binds
20 | QP1121 nanobody (VHH, as m59) VHH: QVQLVESGGGSVHAGGSLRLSCVRVSMYTYTGTCMAWFRQAPGKEREGVAGLWTGDGVTYYADSVKGRFTISQDDAKNTLYLQMDSLKPEDTAMYYCASNGMCGQYWALEDEYKYWGQGTQVTVSS | binds

More lines, now with the values ahead:

Row | binding result | Binder
21 | binds | QP1164 nanobody (VHH, as m59) VHH: QVQLVESGGGSVQSGGSLRLSCAASGFTYGTYAMSWFRQTPGKEREGVACIDIYGRTSYTDPVKGRFTISQDNAKNTLYLQMNSLKPEDTAMYYCAARDFGYCTASWVHEGFSRYWGQGTQVTVSS
22 | binds | QP1169 nanobody (VHH, as m59) VHH: QVQLVESGGGSVQSGGSLRLSCAASGFTYGTYAMSWFRQAPGKEREGVACIDIYGRTSYTDPVKGRFTISQDNAKNTLYLQMNSLKPGDTAMYYCAARDFGYCTASWVHEGFSRYWGQGTQVTVSS
23 | binds | QP1168 nanobody (VHH, as m59) VHH: QVQLVESGGGSVQSGGSLRLSCAASGFTYETYAMSWFRQAPGKEREGVACIDIYGRTSYTDPVKGRFTISQDNAKNTLYLQMNSLKPEDTAMYYCAARDFGYCTASWVHEGFSRYWGQGTQVTVSS
24 | binds | QP1141 nanobody (VHH, as m59) VHH: QVQLVESGGGSVQAGGSLTLSCAVSGNTYSTNAMGWFRQAPGKEREGVAAILGGGRNTYYADSVKGRFTISQDNAKNTVYLQMNSLKPEDTAMYYCAADTRAAFWNIGPLNSDQYNIWGQGTQVTVSS
25 | binds | QP1149 nanobody (VHH, as m59) VHH: QVQLVESGGGSVQAGGSLTLSCAVSGNTYSTNYMGWFRQAPGKEREGVAAILAGGRNTYYADSVKGRFTISQDNAKDTVYLQMNSLKPEDTAMYYCAADTRAAFWNIGPLNSDQYNIWGQGTQVTVSS
26 | binds | QP1152 nanobody (VHH, as m59) VHH: QVQLVESGGGSVQAGGSLTLSCAISGNTYSTKYMGWFRQAPGKEREGVAAILAGGRNTYYADSVKGRFTISQDNAKNTVYLQMHSLKPEDTAMYYCAADTRAAFWYIGPLNSDQYNLWGQGTQVTVSS
27 | binds | QP1154 nanobody (VHH, as m59) VHH: QVQLVESGGGSVQAGGSLTLSCAVSGNTYSTNYMAWFRQAPGKEREGVAAIRAGGRNTDYADSVKGRFTISQDNAKNTVYLQMNSLKPEDTAMYYCAADTRAAFWYIGPLNSDQYNIWGQGTQVTVSS
28 | binds | QP1157 nanobody (VHH, as m59) VHH: QVQLVESGGGSVQAGGSLTLSCAVSGNTYSTNYMGWFRQAPGKEREGVAAILVGGRNTYYADPVKGRFTISQDNAKNLVYLQMNSLKPEDTAMYYCAADTRAAFWNIGPLNSDQYNIWGQGTQVTVSS
29 | binds | QP1143 nanobody (VHH, as m59) VHH: QVQLVESGGGSVQAGGSLTLSCAVSGNTYSTKYMGWFRQAPGKEREGVAAILAGGRDTYYADSVKGRFTISQDNAKNTVYLQMNSLKPEDTAMYYCAADTRAAFWYIGPLNSDQYNIWGQGTQVTVSS
30 | binds | QP1129 nanobody (VHH, as m59) VHH: QVQLVESGGGSVQSGGSLRLSCAASGYSSSRYSVGWFRQAPGKEREGVAGQTPRGTTTYADSVKDRFTISRDNAKNTVYLQMNSLKPEDTAMYYCAAGQALLWASLRQTSYQFWGQGTQVTVSS
31 | binds | QP1124 nanobody (VHH, as m59) VHH: QVQLVESGGGLVQPGGSLRLSCTAPGFTSNTCAMGWYRQAAGMQREWVSSISKYGITTYANSVKGRFTISKDKAEDTVYLQMNNLKPEDTAMYVCKTFSCRNRGGAYLADAWGQGTQVTVSS
32 | binds | QP1123 nanobody (VHH, as m59) VHH: QVQLVESGGGSVQSGGSLRLSCAASGYTVRHYCMGWFRQTPGKEREGVASIDTFGIPKYADSVKGRFTISQDNAKNTLNLQMDSLKPEDTAMYFCAGRSYTNCRDGPPSASHYSHWGQGTQVTVSS
